Measurements as given in patent US20160002344A1 (ONCOMED PHARMACEUTICALS, published 2016).

Experiments:
[1] = target: T1, recombinant mouse RSPO1-Fc protein (mouse, UniProt Q9Z132 21-265, limits assumed); experiment: SPR (Biacore 2000), RSPO1-Fc immobilized on CM5 chip, antibody injected 100 nM to 0.78 nM
T1 construct: Construct not described; not shown: Fc; not described
Description: (§1) The KD of h89M5-H2L2 was determined using a Biacore 2000 system from Biacore LifeSciences (GE Healthcare). Recombinant human RSPO1-Fc or mouse RSPO1-Fc proteins were immobilized on CM5 chips using standard amine-based chemistry (NHS/EDC). The antibodies were serially diluted 2-fold from 100 nM to 0.78 nM in HBS-P (0.01M HEPES pH7.4, 0.15M NaCl, 0.005% v/v Surfactant P20) and were injected over the chip surface. Kinetic data were collected over time and were fit using the simultaneous global fit equation to yield affinity constants (KD values) for each antibody.

[2] = target: T2, recombinant human RSPO1-Fc fusion protein (human, UniProt Q2MKA7 21-263); experiment: as above
T2 construct: not shown: human Fc region
Description: as §1

T1 sequence (Q9Z132 21-265 limits assumed): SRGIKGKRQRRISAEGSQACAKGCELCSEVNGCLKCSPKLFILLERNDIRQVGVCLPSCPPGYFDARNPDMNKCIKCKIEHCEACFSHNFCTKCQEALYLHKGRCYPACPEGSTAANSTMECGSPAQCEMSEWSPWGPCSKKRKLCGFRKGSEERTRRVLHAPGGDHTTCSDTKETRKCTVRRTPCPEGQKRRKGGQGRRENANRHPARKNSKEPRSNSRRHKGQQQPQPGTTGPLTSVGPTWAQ
T2 sequence (Q2MKA7 21-263): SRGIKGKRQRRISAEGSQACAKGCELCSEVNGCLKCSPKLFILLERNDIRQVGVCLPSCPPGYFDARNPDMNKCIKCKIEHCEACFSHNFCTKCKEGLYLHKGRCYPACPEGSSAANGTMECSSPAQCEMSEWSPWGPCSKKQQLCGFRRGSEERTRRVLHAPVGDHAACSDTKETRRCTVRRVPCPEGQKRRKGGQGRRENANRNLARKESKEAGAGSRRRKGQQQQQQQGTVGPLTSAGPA

B1: humanized anti-RSPO1 antibody h89M5-H2L2 (antibody, human IgG2, kappa, V domains shown)
VH: QVQLVQSGAEVKKPGASVKVSCKTSGYTFTGYTMHWVRQAPGQRLEWMGGINPNNGGTTYNQNFKGRVTITRDTSASTAYMELSSLRSEDTAVYYCARKEFSDGYYFFAYWGQGTLVTVSS
VL: DIQMTQSPSSLSASVGDRVTITCKASQDVIFAVAWYQQKPGKAPKLLIYWASTRHTGVPSRFSGSGSGTDYTLTISSLQPEDFATYYCQQHYSTPWTFGGGTKVEIKR
notes: also called humanized 89M5; 89M5-H2 with 89M5-L2
Kd [1]: < 0.1 nM | Kd [2]: < 0.1 nM
